# Assay: yeast display, Sf9 membrane polyspecificity reagent, FACS + sequencing; frameworks hold sequencing errors
# Method in brief: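 Polyreactivity labels are assigned by the sorting gate from which each nanobody was recovered. The gates were low and high (top ~1%), set on anti-HA fluorescence for expression and streptavidin fluorescence for reagent binding. Before sorting, galactose-induced (36–48 hours) yeast display cells were stained for 1 hour at 4 °C with 10% biotinylated, detergent-solubilized Sf9 membrane reagent.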
row,Sequence,polyreactivity (PSR sort gate)
1,QVQLVESCGGLVQAGGSLRLSCAASGSTFTIYAMGWYRQAPGKERELVAVISSSGGSTYYADSVKGRFTISRDNAKNTVYLQMNSLKPEDTAVYYCAADTRYFGGYLTLYYWGQGTQVTVSS,low polyreactivity
2,QVQLVESCGGLVQAGGSLRLSCAASGSTFTVNAMGGYRQAPGKERELVAAINWSGGSTYYADSVKGRFTISRDNAKNTVYFQMNSLKPEDTAVYYCNKDREPYGYWSFDYWGQGSQVTVSS,low polyreactivity
3,QVQLVESCGGLVQAGGSLRLSCAASGSTFVHNAMGWNRQAPGKESELVAAITSRTGITYYADSLKGRFTISRDNAKNTFYLEMNSLKPEDTSVFYCAKRHVRTHRLQFDYWGQGTQVTVSS,high polyreactivity
4,QVQLVESCGGLVQAGGSLRLSCADYGRTFGKYAMGWYRQSPGKERELVAAITYRGGTTYYEDSVKGRFTISRDNAKNTLYLQMNSLKPEDTAVYYCATAPGRRYDWGQGTQVTVSS,high polyreactivity
5,QVQLVESCGGLVQAGGSLRLSCASSGRTIDSKAMGWYRQAPGKERELVAAISWSGGSTYYADSVKGRFTISRDNAKNTVYLQMNSLKPEDTAVYYCNRLGRHAPATRYGYWGQGTQVTVSS,high polyreactivity
6,QVQLVESCGGLVQTGGSLRLICAASRSNFDYYAMGWYRQAPWKETELVATNSYDFSTSYADSVKVLFTISRDNAKNTVFLQMKSLKPVDTAVYYCATDAGLYLEDAYEGPEQEFDYWGQGTQVTVSS,low polyreactivity
7,QVQLVESFGGLVQAGGSLRLICAGSGLTCYVYAMGWSRPAPGKERELVAAISQRGGSTYYADSVKGRFTISRDKAKNTVYLQMNSLKPEDTAVYYCAKYTVQYAFSHYDYWGQGTQVTVSS,high polyreactivity
8,QVQLVESGAALVQAGGSLRLSCAASASTYVSYAMGWSRQAPGKEREFVAAITWRGDSTYYADSVKGRFTISRDNAKNTVYFQMNSLKPEDTAVDYCAADGRSWRYYSPYYYWGQGTQVTVSS,low polyreactivity
9,QVQLVESGACLVQAGGSLRLSCAASGSIFGFYAMGWYRQAPGQERELVAGISYGDSSTYYADSVKGRFTISRDNAKNTVYLQMNSLKPEDTAVYYCAAGHRQKYNWGRYDYWGQGTQVTVSS,low polyreactivity
10,QVQLVESGAGFVQAGGSLRLTCAASGRNLSWYAMGWYRQAPGKEREYVAAITSSGASTYYADSVKGRFTISRDNAKNTVYLQMNSLKPEDTAVYYSNAAWRRVWFNYWGQGTQVTVSS,high polyreactivity
11,QVQLVESGAGIVQAGGSLRLSCAASGLTFANYVMGGYRQAPGKERELVAAISRSGGSTYYADSVKGRFTISRDNAKKTVNLQMNCLKPEDTAVYYCAAAAWDPKGSRYDSWGQGTQVSVSS,low polyreactivity
12,QVQLVESGAGIVQAGGSLRLSCAASGSTFYSYTMGWYRQAPGKERELVAAITSTGGRTYYADSVKGRFTISRDNAKITVYLQMNSLKPEDTAVYYCRRPYLYGMYYWGQGTQVTVSS,high polyreactivity
13,QVQLVESGAGLDQAGCSLRISCAASGRIFWFYTMGWYRQAPWKERELVAAISTSGGSTYYADSVKGRFTISRDNEKNTVYLQMNSLKPDDTAVYYCAAQNGYYPQHDYWGQGTQVTVSS,high polyreactivity
14,QVQLVESGAGLDQAGGSLRLSSAASGNTFQYYAMGSYRQAAGKERELVASISYRGGRTYYADSVKGRFTISRDNAKYTVYLQMNSLKPADTAVYYCAKSKYTNVLYNYWGQGTQVTVSS,high polyreactivity
15,QVQLVESGAGLFQAGGSLRLSCAASGFTFNYYAMGGYIHAPGKERELVAAISRRGGSTYYADSVKGRFTISRDNAKNNVYLQMKSLKPEDTAVYYCNAASLKFTSPVRFGYWGQGTQVTVSS,high polyreactivity
16,QVQLVESGAGLFQAGGSLRLSCAASGFTFWWYAMGWYRQAPGKQRELVASISSGGSTNYADSVKGRFTISRDNANNTVYLQMNSLKQVDTAVFYCARRMLYSERYSARWQYVYWGQGTQVNVSS,high polyreactivity
17,QVQLVESGAGLFQAGGSLRLSCAASGSTFVSYAMGWYRQAPGKEREFVAAITWSGGSTYYADSVKGRFTISRDNAKNTVYLQMNSLKPEDTAVYYCARPYRGSPRYYYWGQGTQVTVSS,high polyreactivity
18,QVQLVESGAGLLQAGGSLRISCAASGLTFKIIAMGWYRQAPGKERELVAAISSGTSTNYADSVKGRFTISRDNAKITVYLQMNSLKPEDTAVYYCAARGFWGVAYRYYYWGQGTQVTLSS,high polyreactivity
19,QVQLVESGAGLVQAGGILRLSCAASGRTFKVYAMGWDRQAPGKERELVAAISDRGGSTYDADSVKGRFTISRDYAKNTVYLQMNSLKPVDTAVYYCSAEYARSTWRAFPELDYWGQGTQVTVSS,low polyreactivity
20,QVQLVESGAGLVQAGGRLRLSCAASGRIFDGYAMGWYRQAPGKERELVAAITASGGSTYYADSVKGRFTISRDNAKITVYLQMNSLKPEDTAVYYCAVDYSYWVEYWGQGTQVTVSS,high polyreactivity
21,QVQLVESGAGLVQAGGRLRLSCGASGRIFGRNAMGLYRQGPGKERELVAAISYSGGSTYYADSVKGRFTISRDNAKNTVYLQMNSLKPEDTAVYYCAARYTRSGYYWGQGTQVTVSS,high polyreactivity

row,Sequence,polyreactivity (PSR sort gate)
1,QVQLVESGAGLVQAGGSHRLSCAASGRNFYWNARGWYRQAPGKEREFVAAISWSGGSTYADSVKGRFTISRDNAKNTVYLQMNSLKPEDTAVYYCAIRVSRSFRAYDYWGQGTQVTVSS,high polyreactivity
2,QVQLVESGAGLVQAGGSILLICAASGLTFYKNAMGWYRQAPAKERELVAVISSSGGSTYYADSVKGRFTISRDNAKNTVYLQMNSLKPEDTAVYYCARDLFTEYRWGLLTYDYWGQGTQVTVSS,low polyreactivity
3,QVQLVESGAGLVQAGGSLRLSCAANTKGSYRQAPGKETELVAAINTGSSTYYADSVKGRFTISRDNAKNTVYLQMNSLKPEDTSVYYCNASYPQYLEYRTRQYNYWVQGTQVTVSS,low polyreactivity
4,QVQLVESGAGLVQAGGSLRLSCAASGFIFARYAMGWSRQAPGKERELVAAITRGGGSTYYADSVKGRFTISRDTAKNTVYLQMNSLKPEDTAVYYCAAENGALVTYGYWGQGTQVTVSS,high polyreactivity
5,QVQLVESGAGLVQAGGSLRLSCAASGFSFQSYTMGWSRQAPGKERELVAAISRSGGRTYYADSVKGRFTISRDNAKNTVYLQMTSLKPEDTAVYYCAVDYRTRVDYWGQGTQLTVSS,high polyreactivity
6,QVQLVESGAGLVQAGGSLRLSCAASGFTFAKYAMGWYRQAPGKERELVATIRRSDDNTYYADSVKGRFTISRDNAKNTVYLQMNSLKPEDTAVYYCATGYYALYSRKPYKYNYWGQGTQVTVSS,high polyreactivity
7,QVQLVESGAGLVQAGGSLRLSCAASGFTFQNYAMGWYRQAPGKERELVAAIDSRGGRTYYADSVKGRFTISRDNAKNSVYLQMNSLKPEDTAVYYCAVAENKRFGSVGYYYWGQGTQVTVSS,low polyreactivity
8,QVQLVESGAGLVQAGGSLRLSCAASGFTFRYYAMGWYRQAPGKERELVATISASSGSTYYADSVKGRFTISRDNAKNTVYLQMNSLKPEDTAVYYGAKEPLASGWGYDYWGQGTQVTVSS,high polyreactivity
9,QVQLVESGAGLVQAGGSLRLSCAASGHTFYYNTMGLYRQAPGKERELVAVISWSGSRTYYADSVKGRFTISRDYAKNTVYLQMNSLKPEDTAVSYCNAVYSHRREYWGEGTQVTVSS,high polyreactivity
10,QVQLVESGAGLVQAGGSLRLSCAASGITFAYYAMGWYRQAPGKERELVAAIRGGTNTYYADSVKGSYTISRDNAKNTVYFLMNSLKPEDTAVYYCAARRSSHWFTYDYWGQGTLVTVSS,high polyreactivity
11,QVQLVESGAGLVQAGGSLRLSCAASGITFRGYAMGWYRQAPGKERELVAAISSRGGSTYYADSVMGRFTISRDNAKNTVYLQMNSLKPEDTAVYYCNAVSGLYFTYTYDYWGQGTQVTVSS,high polyreactivity
12,QVQLVESGAGLVQAGGSLRLSCAASGRIFYWYAMGWYRQAPGKERELVAAIRRRVGSTYYADSVKGRFTISRDNAKNTVYLQMNSLKPEDTAVYYCAAVITSDGARYDYWGQGTQVTVSS,high polyreactivity
13,QVQLVESGAGLVQAGGSLRLSCAASGRIVYYVMGWYRQAPAKEMELVAAISTRGGSTYYADSVKGRFTISRDNAKNTVYLQINSLKPEDTAVYYCAASSLLTRFNSWGQGTQVTVSS,high polyreactivity
14,QVQLVESGAGLVQAGGSLRLSCAASGRTFGSNAMGWYRQAPGKERELVAAITRGGSTNYADSVKGRFTISRDNAKNTVYLQMNSLKPEDTAVYYCAKRSYYRYRYYYWGQGTQVSVSS,high polyreactivity
15,QVQLVESGAGLVQAGGSLRLSCAASGRTFRPNPMGWYRPAPWKDRELVASITSGGRTNYADSVKGRFTISRDNAKNTVYLQMNSLKPEDTAVYYCAADHYHGYWKYDYWGQGTQVTVSS,low polyreactivity
16,QVQLVESGAGLVQAGGSLRLSCAASGRTFTSNSMGLYIQAPGKERELVASISFRGGRTYYADSVKVRFTISRDNAKNTVYLQMNSLKPEDTAVYYCVSGTKRTGYGYWGQGTLVTVSS,high polyreactivity
17,QVQLVESGAGLVQAGGSLRLSCAASGSIFSPYDMGWYRPAPGKERELVAAISRSGRTHYADSVKGRFTISRDNAKNTVYLQMNSLKPEDTAVYYCAAGVVSGYYYWGHGTQVTVSS,high polyreactivity
18,QVQLVESGAGLVQAGGSLRLSCAASGSIFYDYAMGVYRQAPGKERELVAAISSSGITYYADSVKGRFTISRDNAKNTVYLQMNSLKPVDTAVYYCNARSYLRDYYYWGQGTQVTVSS,high polyreactivity
19,QVQLVESGAGLVQAGGSLRLSCAASGSILKKYGMGLSRQAPGKERELVARISKSGGSTFYADSVKGRFTISRDNAKNTVYLQMNSLKPEDTAVYYCATLKYPYATSQGYDYWGQGTQVTVSS,high polyreactivity
20,QVQLVESGAGLVQAGGSLRLSCAASGSTCPGNAMGWYRQAPGKERELVAVINSGGGTNYADSVKGRFTISRDNAKNTVYFQINSLNPEDTAVYYCAKGYRRSFIGYWYLKYGYWGQGTQVTVSS,high polyreactivity
